Tested on: Escherichia coli TOP10
Assay: shrunken log2 fold change of peptide-encoding DNA abundance (4.5 h post-induction vs induction); higher = less antimicrobial activity (less host growth inhibition)
Conditions: time post-induction: 4.5 h; library: site-saturation at positions 5, 18, 19, 20
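Further: peptides expressed intracellularly from a pBAD plasmid library in pooled LB shake-flask culture, induced with 0.3% L-arabinose, DNA abundance read by NGS, three biological replicates, DESeq2 with apeglm shrinkage.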

Compared with RRIRVRPPRLPRPRPRPEWWPRP, RRIRVRPPRLPRPRPRPEYRPRP is lower in “shrunken log2 fold change” value: 0.191 for the first, -0.115 for the second.

Compared with RRIRVRPPRLPRPRPRPFAWPRP, RRIRVRPPRLPRPRPRPFCMPRP is lower in “shrunken log2 fold change” value: 0.384 for the first, -0.537 for the second.

First: RRIRVRPPRLPRPRPRPFCRPRP
Second: RRIRVRPPRLPRPRPRPFEHPRP
The “shrunken log2 fold change” value of the first is lower: -0.215 for the first, -0.00133 for the second.

RRIRVRPPRLPRPRPRPFELPRP and RRIRVRPPRLPRPRPRPFEPPRP are within 0.2 log units of each other in “shrunken log2 fold change” value: 0.0193 for the first, 0.126 for the second.

First: RRIRVRPPRLPRPRPRPFFLPRP
Second: RRIRVRPPRLPRPRPRPFHDPRP
The “shrunken log2 fold change” value of the first is lower: -0.294 for the first, -0.0143 for the second.

RRIRVRPPRLPRPRPRPFHKPRP and RRIRVRPPRLPRPRPRPFIEPRP are within 0.2 log units of each other in “shrunken log2 fold change” value: -0.385 for the first, -0.468 for the second.

RRIRVRPPRLPRPRPRPFIRPRP and RRIRVRPPRLPRPRPRPFKLPRP are within 0.2 log units of each other in “shrunken log2 fold change” value: -0.148 for the first, -0.277 for the second.

Compared with RRIRVRPPRLPRPRPRPFPTPRP, RRIRVRPPRLPRPRPRPFSCPRP is lower in “shrunken log2 fold change” value: 0.756 for the first, -0.323 for the second.

Compared with RRIRVRPPRLPRPRPRPFSSPRP, RRIRVRPPRLPRPRPRPFTWPRP is lower in “shrunken log2 fold change” value: -0.068 for the first, -0.327 for the second.

RRIRVRPPRLPRPRPRPFVTPRP and RRIRVRPPRLPRPRPRPFVWPRP are within 0.2 log units of each other in “shrunken log2 fold change” value: -0.206 for the first, -0.03 for the second.

Compared with RRIRVRPPRLPRPRPRPFWSPRP, RRIRVRPPRLPRPRPRPFWWPRP is higher in “shrunken log2 fold change” value: 0.0887 for the first, 0.343 for the second.

Going from RRIRVRPPRLPRPRPRPFYQPRP to RRIRVRPPRLPRPRPRPFYWPRP, the “shrunken log2 fold change” value rises from -0.537 to -0.103.

RRIRVRPPRLPRPRPRPGACPRP and RRIRVRPPRLPRPRPRPGADPRP are within 0.2 log units of each other in “shrunken log2 fold change” value: 0.0218 for the first, 0.163 for the second.

First: RRIRVRPPRLPRPRPRPGAHPRP
Second: RRIRVRPPRLPRPRPRPGCCPRP
The “shrunken log2 fold change” value of the first is lower: 0.0262 for the first, 0.385 for the second.

Compared with RRIRVRPPRLPRPRPRPGCMPRP, RRIRVRPPRLPRPRPRPGCWPRP is higher in “shrunken log2 fold change” value: -0.076 for the first, 0.594 for the second.

Compared with RRIRVRPPRLPRPRPRPGDVPRP, RRIRVRPPRLPRPRPRPGENPRP is higher in “shrunken log2 fold change” value: -0.262 for the first, -0.0226 for the second.

First: RRIRVRPPRLPRPRPRPGEYPRP
Second: RRIRVRPPRLPRPRPRPGFCPRP
The “shrunken log2 fold change” value of the first is lower: 0.00369 for the first, 0.352 for the second.

Compared with RRIRVRPPRLPRPRPRPGFGPRP, RRIRVRPPRLPRPRPRPGFMPRP is lower in “shrunken log2 fold change” value: 0.408 for the first, -0.152 for the second.

RRIRVRPPRLPRPRPRPGIRPRP and RRIRVRPPRLPRPRPRPGLDPRP are within 0.2 log units of each other in “shrunken log2 fold change” value: -0.0476 for the first, 0.0777 for the second.

First: RRIRVRPPRLPRPRPRPGMHPRP
Second: RRIRVRPPRLPRPRPRPGNHPRP
The “shrunken log2 fold change” value of the first is higher: -0.00805 for the first, -0.245 for the second.

Compared with RRIRVRPPRLPRPRPRPGRRPRP, RRIRVRPPRLPRPRPRPGTLPRP is lower in “shrunken log2 fold change” value: 0.236 for the first, -0.174 for the second.

RRIRVRPPRLPRPRPRPGYFPRP and RRIRVRPPRLPRPRPRPHDYPRP are within 0.2 log units of each other in “shrunken log2 fold change” value: -0.366 for the first, -0.264 for the second.

Going from RRIRVRPPRLPRPRPRPHEVPRP to RRIRVRPPRLPRPRPRPHEWPRP, the “shrunken log2 fold change” value falls from -0.0408 to -0.276.

RRIRVRPPRLPRPRPRPHGRPRP and RRIRVRPPRLPRPRPRPHLCPRP are within 0.2 log units of each other in “shrunken log2 fold change” value: -0.0651 for the first, -0.137 for the second.

First: RRIRVRPPRLPRPRPRPHNRPRP
Second: RRIRVRPPRLPRPRPRPHPPPRP
The “shrunken log2 fold change” value of the first is lower: -0.241 for the first, 0.361 for the second.

RRIRVRPPRLPRPRPRPHQMPRP and RRIRVRPPRLPRPRPRPHQRPRP are within 0.2 log units of each other in “shrunken log2 fold change” value: -0.0715 for the first, -0.124 for the second.

Going from RRIRVRPPRLPRPRPRPHQYPRP to RRIRVRPPRLPRPRPRPHRIPRP, the “shrunken log2 fold change” value rises from -0.278 to -0.0697.

First: RRIRVRPPRLPRPRPRPHSSPRP
Second: RRIRVRPPRLPRPRPRPHSWPRP
The “shrunken log2 fold change” value of the first is lower: -0.531 for the first, 0.0662 for the second.

RRIRVRPPRLPRPRPRPHTVPRP and RRIRVRPPRLPRPRPRPHVHPRP are within 0.2 log units of each other in “shrunken log2 fold change” value: -0.448 for the first, -0.45 for the second.

RRIRVRPPRLPRPRPRPHVTPRP and RRIRVRPPRLPRPRPRPHWDPRP are within 0.2 log units of each other in “shrunken log2 fold change” value: -0.304 for the first, -0.473 for the second.

RRIRVRPPRLPRPRPRPHWIPRP and RRIRVRPPRLPRPRPRPHWYPRP are within 0.2 log units of each other in “shrunken log2 fold change” value: -0.512 for the first, -0.463 for the second.

First: RRIRVRPPRLPRPRPRPHYEPRP
Second: RRIRVRPPRLPRPRPRPICRPRP
The “shrunken log2 fold change” value of the first is lower: -0.173 for the first, 0.177 for the second.

RRIRVRPPRLPRPRPRPIDHPRP and RRIRVRPPRLPRPRPRPIDIPRP are within 0.2 log units of each other in “shrunken log2 fold change” value: -0.152 for the first, -0.11 for the second.

RRIRVRPPRLPRPRPRPIEKPRP and RRIRVRPPRLPRPRPRPIEVPRP are within 0.2 log units of each other in “shrunken log2 fold change” value: 0.0502 for the first, -0.141 for the second.

Going from RRIRVRPPRLPRPRPRPIHKPRP to RRIRVRPPRLPRPRPRPIIDPRP, the “shrunken log2 fold change” value rises from -0.203 to 0.0493.

Going from RRIRVRPPRLPRPRPRPIIKPRP to RRIRVRPPRLPRPRPRPIIWPRP, the “shrunken log2 fold change” value rises from -0.351 to -0.098.

First: RRIRVRPPRLPRPRPRPIKSPRP
Second: RRIRVRPPRLPRPRPRPILIPRP
The “shrunken log2 fold change” value of the first is higher: -0.184 for the first, -0.413 for the second.

First: RRIRVRPPRLPRPRPRPIMAPRP
Second: RRIRVRPPRLPRPRPRPINFPRP
The “shrunken log2 fold change” value of the first is higher: -0.111 for the first, -0.458 for the second.

First: RRIRVRPPRLPRPRPRPINLPRP
Second: RRIRVRPPRLPRPRPRPIPFPRP
The “shrunken log2 fold change” value of the first is lower: -0.304 for the first, 0.0609 for the second.

RRIRVRPPRLPRPRPRPIPMPRP and RRIRVRPPRLPRPRPRPIRMPRP are within 0.2 log units of each other in “shrunken log2 fold change” value: -0.094 for the first, -0.243 for the second.

First: RRIRVRPPRLPRPRPRPITQPRP
Second: RRIRVRPPRLPRPRPRPITTPRP
The “shrunken log2 fold change” value of the first is higher: -0.0754 for the first, -0.304 for the second.

First: RRIRVRPPRLPRPRPRPIWAPRP
Second: RRIRVRPPRLPRPRPRPIYEPRP
The “shrunken log2 fold change” value of the first is higher: 0.256 for the first, -0.184 for the second.

RRIRVRPPRLPRPRPRPKCCPRP and RRIRVRPPRLPRPRPRPKCEPRP are within 0.2 log units of each other in “shrunken log2 fold change” value: -0.0953 for the first, 0.0936 for the second.

RRIRVRPPRLPRPRPRPKEVPRP and RRIRVRPPRLPRPRPRPKGCPRP are within 0.2 log units of each other in “shrunken log2 fold change” value: 0.177 for the first, 0.015 for the second.

RRIRVRPPRLPRPRPRPKHKPRP and RRIRVRPPRLPRPRPRPKISPRP are within 0.2 log units of each other in “shrunken log2 fold change” value: -0.114 for the first, -0.234 for the second.

First: RRIRVRPPRLPRPRPRPKKHPRP
Second: RRIRVRPPRLPRPRPRPKKKPRP
The “shrunken log2 fold change” value of the first is higher: -0.0486 for the first, -0.356 for the second.

RRIRVRPPRLPRPRPRPKKMPRP and RRIRVRPPRLPRPRPRPKLMPRP are within 0.2 log units of each other in “shrunken log2 fold change” value: -0.0803 for the first, -0.203 for the second.

RRIRVRPPRLPRPRPRPKLNPRP and RRIRVRPPRLPRPRPRPKLSPRP are within 0.2 log units of each other in “shrunken log2 fold change” value: -0.212 for the first, -0.0136 for the second.

RRIRVRPPRLPRPRPRPKMPPRP and RRIRVRPPRLPRPRPRPKMSPRP are within 0.2 log units of each other in “shrunken log2 fold change” value: -0.0804 for the first, -0.122 for the second.

Going from RRIRVRPPRLPRPRPRPKNAPRP to RRIRVRPPRLPRPRPRPKPLPRP, the “shrunken log2 fold change” value rises from -0.197 to 0.196.

RRIRVRPPRLPRPRPRPKQSPRP and RRIRVRPPRLPRPRPRPKQVPRP are within 0.2 log units of each other in “shrunken log2 fold change” value: 0.0123 for the first, -0.0801 for the second.

Going from RRIRVRPPRLPRPRPRPKSYPRP to RRIRVRPPRLPRPRPRPKVHPRP, the “shrunken log2 fold change” value rises from -0.425 to -0.192.

Going from RRIRVRPPRLPRPRPRPKVQPRP to RRIRVRPPRLPRPRPRPKYMPRP, the “shrunken log2 fold change” value falls from 3.74 to -0.433.

Compared with RRIRVRPPRLPRPRPRPKYYPRP, RRIRVRPPRLPRPRPRPLCQPRP is higher in “shrunken log2 fold change” value: -0.921 for the first, 0.258 for the second.

In the case of RRIRVRPPRLPRPRPRPLDEPRP, the “shrunken log2 fold change” value was -0.0276.

From the supplement of paper PMC9112550, “Optimization of the antimicrobial peptide Bac7 by deep mutational scanning” (BMC Biology, 2022)
